Measured values taken from the Human Domainome abundance scans (Beltran et al. 2025).
± gives the uncertainty stated by the source.

B1: Far upstream element-binding protein 2, residues 142 to 214; numbered along this chain, Q92945 (parent)
chain: RTSMTEEYRVPDGMVGLIIGRGGEQINKIQQDSGCKVQISPDSGGLPERSVSLTGAPESVQKAKMMLDDIVSR
B2: Double-stranded RNA-binding protein Staufen homolog 1, residues 183 to 249; numbered along this chain, O95793 (parent)
chain: KSEISQVFEIALKRNLPVNFEVARESGPPHMKNFVTKVSVGEFVGEGEGKSKKISKKNAAIAVLEEL

Variants of: B1
Experiment: abundance fitness (aPCA) (normalised: wild type 0, dead -1); higher = more abundant; growth selection in yeast, the domain comes from the species named
Settings: Homo sapiens

Abundance fitness of substitutions, site by site:
R73: W -0.201 ± 0.061, G 0.177 ± 0.043, I 0.027 ± 0.1, F -0.162 ± 0.19, L -0.004 ± 0.054, E -0.013 ± 0.055, S 0.055 ± 0.06, T 0.124 ± 0.063, K 0.016 ± 0.069, H -0.099 ± 0.15, V -0.074 ± 0.049

Variants of: B2
Experiment: as above
Settings: Homo sapiens

Abundance fitness of substitutions, site by site:
Q6: F -0.653 ± 0.038, E -0.021 ± 0.037, M -0.169 ± 0.038, H -0.415 ± 0.034, P -0.697 ± 0.038, D -0.435 ± 0.033, L -0.158 ± 0.027, S -0.255 ± 0.026, I -0.393 ± 0.034, G -0.634 ± 0.028, N -0.494 ± 0.03, T -0.198 ± 0.03, C -0.283 ± 0.033, R -0.097 ± 0.026
I4: E -0.44 ± 0.062, H -0.447 ± 0.067, A -0.705 ± 0.064, C -0.417 ± 0.084, T -0.391 ± 0.062, K -0.516 ± 0.062, R -0.7 ± 0.042, V -0.059 ± 0.037, F -0.534 ± 0.07, M -0.292 ± 0.054, Y -0.74 ± 0.092, Q -0.661 ± 0.073, W -0.359 ± 0.051, S -0.461 ± 0.056, N -0.56 ± 0.094, G -0.735 ± 0.056, D -0.388 ± 0.077
S5: P -0.528 ± 0.16, F -0.512 ± 0.2
A11: I -1.08 ± 0.26, P -0.891 ± 0.1, E -0.822 ± 0.079, F -1.13 ± 0.24, L -0.9 ± 0.079, V -0.892 ± 0.065, S -0.358 ± 0.048, Q -0.732 ± 0.098, D -0.679 ± 0.08, Y -0.967 ± 0.14, W -0.91 ± 0.095, K -0.633 ± 0.068, T -0.653 ± 0.087, N -0.564 ± 0.082, R -0.829 ± 0.063, G 0.035 ± 0.039, M -0.913 ± 0.098, C -0.825 ± 0.11
E9: T -0.197 ± 0.048, W -0.506 ± 0.064, F -0.545 ± 0.066, A -0.057 ± 0.038, Y -0.338 ± 0.069, V -0.517 ± 0.038, I -0.552 ± 0.072, G -0.433 ± 0.039, L -0.36 ± 0.041, P -0.716 ± 0.071, H -0.155 ± 0.079, R -0.232 ± 0.036, D -0.049 ± 0.047, C -0.33 ± 0.075, M -0.317 ± 0.05, Q -0.038 ± 0.051, S -0.2 ± 0.04
I10: T -0.542 ± 0.22
R14: H -0.155 ± 0.084, E -0.334 ± 0.052, M 0.014 ± 0.066, F -0.232 ± 0.15, Y -0.048 ± 0.15, S -0.31 ± 0.056, Q -0.188 ± 0.064, G -0.361 ± 0.047, W -0.25 ± 0.07, K -0.212 ± 0.082, N -0.179 ± 0.1, P -0.594 ± 0.072, D -0.487 ± 0.092, V -0.6 ± 0.061, L -0.139 ± 0.052, A -0.204 ± 0.057, T -0.371 ± 0.073
F20: P -0.654 ± 0.062, H -0.699 ± 0.096, R -0.569 ± 0.046, M -0.305 ± 0.058, Y -0.291 ± 0.11, I -0.114 ± 0.12, D -0.613 ± 0.11, A -0.499 ± 0.048, W 0.036 ± 0.061, Q -0.657 ± 0.065, L -0.286 ± 0.042, K -0.45 ± 0.061, N -0.779 ± 0.17, S -0.429 ± 0.048, C -0.361 ± 0.088, T -0.395 ± 0.059
K13: W -0.59 ± 0.074, E -0.183 ± 0.072, S -0.194 ± 0.049, Y -0.323 ± 0.1, T -0.246 ± 0.079, G -0.308 ± 0.043, L -0.213 ± 0.042, M -0.213 ± 0.09, P -0.528 ± 0.085, C -0.296 ± 0.084, R -0.071 ± 0.046, V -0.215 ± 0.055, F -0.436 ± 0.11, I -0.26 ± 0.096, A -0.019 ± 0.056, Q -0.079 ± 0.069, D -0.327 ± 0.085
P17: R -0.025 ± 0.051, L -0.196 ± 0.041, H -0.093 ± 0.089, N -0.112 ± 0.096, C -0.447 ± 0.18, T 0.012 ± 0.051, V -0.174 ± 0.051, K 0.031 ± 0.059, W -0.56 ± 0.079, A -0.09 ± 0.051, M -0.172 ± 0.07, Y -0.288 ± 0.15, E -0.09 ± 0.055, I -0.323 ± 0.11, Q -0.037 ± 0.067, S -0.008 ± 0.054, G -0.24 ± 0.054
L12: K -0.029 ± 0.22, Q 0.01 ± 0.17, Y 0.066 ± 0.14, T -0.155 ± 0.11, P -0.645 ± 0.12, D -0.047 ± 0.17, S 0.028 ± 0.081, C -0.06 ± 0.099, R 0.127 ± 0.06, A 0.111 ± 0.069, I -0.026 ± 0.22, E -0.085 ± 0.076, H -0.032 ± 0.34, G -0.035 ± 0.067, M 0.011 ± 0.079, W -0.063 ± 0.096, F -0.075 ± 0.13, N 0.081 ± 0.11
F8: H -0.012 ± 0.074, W 0.064 ± 0.047, C -0.258 ± 0.066, E -0.268 ± 0.048, Y 0.129 ± 0.062, P -0.457 ± 0.056, M -0.143 ± 0.058, K -0.135 ± 0.055, L -0.112 ± 0.039, D -0.408 ± 0.066, R -0.129 ± 0.033, A -0.334 ± 0.047, V -0.203 ± 0.04, T -0.337 ± 0.048, N -0.317 ± 0.063, S -0.394 ± 0.039, G -0.332 ± 0.039
N19: M -0.048 ± 0.058, H 0.011 ± 0.078, L -0.069 ± 0.041, P -0.698 ± 0.07, I -0.15 ± 0.075, F -0.062 ± 0.089, S 0.006 ± 0.051, G -0.323 ± 0.053, A -0.047 ± 0.051, R 0.077 ± 0.044, C 0.027 ± 0.11, Y -0.167 ± 0.084, V -0.101 ± 0.048, W -0.246 ± 0.062, D -0.229 ± 0.099, T 0.037 ± 0.052, K 0.082 ± 0.061
S2: C -0.482 ± 0.11, T -0.235 ± 0.052, Q -0.305 ± 0.076, P -0.328 ± 0.051, K -0.015 ± 0.099, E -0.381 ± 0.082, D -0.382 ± 0.072, Y -0.653 ± 0.087, R -0.382 ± 0.048, A -0.41 ± 0.051, G -0.136 ± 0.052, F -0.709 ± 0.098, V -0.7 ± 0.11, W -0.902 ± 0.16, I -1.02 ± 0.26, H -0.546 ± 0.096
N15: Q -0.144 ± 0.1, H 0.006 ± 0.12, V -0.785 ± 0.069, F -0.557 ± 0.12, Y -0.637 ± 0.1, R -0.155 ± 0.044, I -0.629 ± 0.17, E -0.231 ± 0.054, T -0.431 ± 0.087, S -0.146 ± 0.061, L -0.531 ± 0.065, A -0.198 ± 0.056, G 0.025 ± 0.041, C -0.325 ± 0.11, D -0.156 ± 0.076, M -0.296 ± 0.093
L16: F -0.424 ± 0.15, D -0.54 ± 0.16, K -0.432 ± 0.074, P -0.663 ± 0.1, G -0.863 ± 0.079, Q -0.128 ± 0.082, I -0.196 ± 0.11, M -0.131 ± 0.077, C -0.515 ± 0.076, E -0.472 ± 0.087, H -0.708 ± 0.12, A -0.421 ± 0.079, T -0.594 ± 0.077, N -0.716 ± 0.14, W -0.063 ± 0.051, R -0.587 ± 0.047, S -0.609 ± 0.07, V -0.176 ± 0.066, Y -0.454 ± 0.088
E21: I -0.204 ± 0.066, D -0.105 ± 0.098, H -0.072 ± 0.068, F -0.055 ± 0.084, G -0.165 ± 0.037, P -1.05 ± 0.12, C -0.114 ± 0.051, L -0.133 ± 0.041, Q 0.014 ± 0.058, K -0.049 ± 0.066, A -0.059 ± 0.045, N -0.226 ± 0.086, M -0.181 ± 0.059, R -0.084 ± 0.034
E3: S -0.208 ± 0.045, M -0.509 ± 0.055, R -0.551 ± 0.047, P -0.023 ± 0.07, W -0.309 ± 0.082, G -0.551 ± 0.04, T -0.236 ± 0.056, N -0.396 ± 0.086, Y -0.098 ± 0.079, H -0.219 ± 0.072, I -0.001 ± 0.082, C -0.205 ± 0.064, K -0.194 ± 0.072, Q -0.247 ± 0.062, L -0.231 ± 0.043, F -0.177 ± 0.07, A -0.049 ± 0.041, D -0.286 ± 0.059, V -0.022 ± 0.037
V7: F -0.748 ± 0.083, C -0.607 ± 0.077, W -1.13 ± 0.081, D -0.676 ± 0.075, G -0.626 ± 0.046, P -0.68 ± 0.066, T -0.717 ± 0.075, R -0.631 ± 0.039, M -0.295 ± 0.056, Q -0.681 ± 0.062, K -0.586 ± 0.059, I -0.24 ± 0.043, E -0.486 ± 0.06, L -0.142 ± 0.038, H -0.857 ± 0.14, A -0.781 ± 0.055, Y -0.782 ± 0.14, S -0.656 ± 0.052
V18: L -0.404 ± 0.044, G -0.707 ± 0.056, E -0.507 ± 0.086, A -0.377 ± 0.054, M -0.396 ± 0.093, W -0.861 ± 0.096, R -0.657 ± 0.058, S -0.465 ± 0.065, C -0.218 ± 0.1, T -0.784 ± 0.1, P -0.402 ± 0.084, Q -0.647 ± 0.079, D -0.746 ± 0.17, N -0.906 ± 0.14, Y -0.739 ± 0.13, K -0.562 ± 0.093, F -0.832 ± 0.15
K1: D -0.235 ± 0.095, G -0.175 ± 0.044, L -0.3 ± 0.052, I -0.201 ± 0.092, N -0.079 ± 0.12, H -0.738 ± 0.2, E -0.263 ± 0.081, A -0.436 ± 0.11, S -0.316 ± 0.071, R -0.178 ± 0.048, V -0.335 ± 0.054, Y -0.211 ± 0.11, F -0.602 ± 0.28, T -0.166 ± 0.065, W -0.514 ± 0.073, C -0.177 ± 0.1
